B1: TPR 5TU (parent)
chain: GGAUCUUCUCGAUCUAACAAAAAAGACAAAUCUGCCACAAAGCUUGAGAGCAUCUUCGGAUGCAGAGGCGGCAGCCUUCGGUGGCGCGAUAGCGCCAACGUUCUCAACUAUGACACGCAAAACGCGUGCUCCGUUGAAUGGAGUUUAUCAUG

This sample holds only a part of the variants without activity.

In the data set the parent is B1. The data set is described as follows: polymerase ribozyme fitness, log enrichment relative to wild type (log ratio); higher = more active; in vitro selection for triplet polymerase activity. In outline: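 To select mutant libraries of each subunit of a heterodimeric triplet polymerase ribozyme, built by PCR and transcribed, each was annealed with a biotinylated primer, partner subunit and triplets, then incubated frozen at −7 °C. Extended constructs were gel-excised, captured on streptavidin beads and amplified by RT-PCR, in one round carried out in triplicate. Illumina sequencing of input and output libraries kept genotypes with ≥10 input reads and ≥1 read per output. Fitness is the base-2 logarithm of genotype enrichment relative to wild-type enrichment, from inverse-variance-weighted replicate averages.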
Consider C63G G83A A98C U104A, for which the “polymerase ribozyme fitness (log ratio)” value was -0.841.

For the variant A3G C14G A147U, the “polymerase ribozyme fitness (log ratio)” value was -2.9.

In the case of G92A A113C, the “polymerase ribozyme fitness (log ratio)” value is -4.16.

Consider G84A C114G G124A U134C, for which the “polymerase ribozyme fitness (log ratio)” value was -3.53.

As for A23U A29C A119U, the “polymerase ribozyme fitness (log ratio)” value was at most -4.2.

In the case of C72G G86C, the “polymerase ribozyme fitness (log ratio)” value is at most -4.2.

With G25U U55G A122U, the “polymerase ribozyme fitness (log ratio)” value is -3.1.

Consider G50A G71C U82G C85G, for which the “polymerase ribozyme fitness (log ratio)” value was at most -4.2.

Regarding G83A C96U C118U, the “polymerase ribozyme fitness (log ratio)” value is -0.697.

As to C85G U139C G143A, the “polymerase ribozyme fitness (log ratio)” value is at most -4.2.

With U55A A121U, the “polymerase ribozyme fitness (log ratio)” value is -0.372.

In the case of C18G A26U C96A, the “polymerase ribozyme fitness (log ratio)” value was -2.84.

Turning to C35U G62A G83U G86C C125G A142U, the “polymerase ribozyme fitness (log ratio)” value was at most -4.2.

For U61C U104G G126C, the “polymerase ribozyme fitness (log ratio)” value was -2.04.

For the variant G46U C103G G124A U151G, the “polymerase ribozyme fitness (log ratio)” value was at most -4.2.

For the variant G80C C87U U102G G124C U130A, the “polymerase ribozyme fitness (log ratio)” value was at most -4.2.

With U13C A30U C36G C51U U55A C87A G126U, the “polymerase ribozyme fitness (log ratio)” value is at most -4.2.

Take A21C C35U U44A U53A U101G: the “polymerase ribozyme fitness (log ratio)” value is at most -4.2.

With G58C C85U, the “polymerase ribozyme fitness (log ratio)” value is -1.17.

On to A19C A23G A24G U31A C35A A40U G48A C79A G140A, for which the “polymerase ribozyme fitness (log ratio)” value is at most -4.2.

Turning to A24C A73C G86U C96A, the “polymerase ribozyme fitness (log ratio)” value was at most -4.2.

G58C C72U A150U: the “polymerase ribozyme fitness (log ratio)” value worked out at 0.398.

Consider C10U G84A U101A A115U A121G G124A, for which the “polymerase ribozyme fitness (log ratio)” value is at most -4.2.

For C27A A106C A113U C125A, the “polymerase ribozyme fitness (log ratio)” value is at most -4.2.

As to U9A A23C C32U C72G G80A G81A, the “polymerase ribozyme fitness (log ratio)” value is at most -4.2.

Turning to G34C A49C A52G U61G C87U C95A, the “polymerase ribozyme fitness (log ratio)” value was -4.12.

As to A28U C87U A119C A138U G140C, the “polymerase ribozyme fitness (log ratio)” value is at most -4.2.

A49U A107C: the “polymerase ribozyme fitness (log ratio)” value is at most -4.2.

For G48A G80C G94A C96U C99G, the “polymerase ribozyme fitness (log ratio)” value is -3.97.

For C38U G50A U77C C87G, the “polymerase ribozyme fitness (log ratio)” value was at most -4.2.

With A23U C93A, the “polymerase ribozyme fitness (log ratio)” value is at most -4.2.

With G58A, the “polymerase ribozyme fitness (log ratio)” value was determined as 0.338.

Regarding A16U A106G, the “polymerase ribozyme fitness (log ratio)” value is -1.8.

With A16U C18U U44G U82A C93U C99A A106G A142C, the “polymerase ribozyme fitness (log ratio)” value is at most -4.2.

Turning to A20G G50C C54G C76A C87G U90G C95U, the “polymerase ribozyme fitness (log ratio)” value was at most -4.2.

As for A3U A91C, the “polymerase ribozyme fitness (log ratio)” value is -3.34.

For the variant A106C G141A, the “polymerase ribozyme fitness (log ratio)” value is -0.24.

As to G25C A26U C87G A121U C129G U151A, the “polymerase ribozyme fitness (log ratio)” value was at most -4.2.

On to G34U G94A, for which the “polymerase ribozyme fitness (log ratio)” value is -2.37.

As for G34U, the “polymerase ribozyme fitness (log ratio)” value was -1.11.

As to A24C A29C A37U G59A U61G C87A C103G G117U, the “polymerase ribozyme fitness (log ratio)” value was at most -4.2.

A16C A49U C85U U146C: the “polymerase ribozyme fitness (log ratio)” value is -2.7.

On to U7G C95U, for which the “polymerase ribozyme fitness (log ratio)” value is -2.93.

For the variant C14A A39C G70A U130G, the “polymerase ribozyme fitness (log ratio)” value is at most -4.2.

Regarding C14G C18U U144C, the “polymerase ribozyme fitness (log ratio)” value was -2.22.

As for C85U G152U, the “polymerase ribozyme fitness (log ratio)” value is -3.73.

U44G U135A: the “polymerase ribozyme fitness (log ratio)” value is -3.83.

On to A22U C99A, for which the “polymerase ribozyme fitness (log ratio)” value came to 0.261.

For G48A G62A C96A C132G U134G A147C, the “polymerase ribozyme fitness (log ratio)” value was at most -4.2.

For the variant C38A G42C U55G C69U U90G U146C, the “polymerase ribozyme fitness (log ratio)” value was at most -4.2.

For A19G G50U A73G C85U, the “polymerase ribozyme fitness (log ratio)” value is -0.781.

Consider A28C C54A C95A C105U U145A, for which the “polymerase ribozyme fitness (log ratio)” value was at most -4.2.

G42A G86A C118A: the “polymerase ribozyme fitness (log ratio)” value is at most -4.2.

Take A52G U56G A60C C85G G143U: the “polymerase ribozyme fitness (log ratio)” value is at most -4.2.

For the variant G92A C95A C125G, the “polymerase ribozyme fitness (log ratio)” value was -3.82.

Turning to U53A A97C, the “polymerase ribozyme fitness (log ratio)” value was -0.583.

Regarding G86C A98C, the “polymerase ribozyme fitness (log ratio)” value was -1.

For U82A C125G, the “polymerase ribozyme fitness (log ratio)” value was -0.33.

For the variant C54A A150G, the “polymerase ribozyme fitness (log ratio)” value was -3.37.

As for C87G U134A, the “polymerase ribozyme fitness (log ratio)” value is at most -4.2.

As to A30G G42A U55G G65A C76G C87G A106U G143A A147C, the “polymerase ribozyme fitness (log ratio)” value was at most -4.2.

As to U134A A142G, the “polymerase ribozyme fitness (log ratio)” value is -3.04.

As to C5A C85U G86C A119C A120C, the “polymerase ribozyme fitness (log ratio)” value was -3.07.

With A17G G70A C75G C96U C99G, the “polymerase ribozyme fitness (log ratio)” value was -4.15.

Regarding U13C G59C U61G C79U G84A C132A, the “polymerase ribozyme fitness (log ratio)” value was -4.17.

On to G11U A73U G81A G83C G86U G126C G136C, for which the “polymerase ribozyme fitness (log ratio)” value is at most -4.2.

Turning to A19U C87U A121C A147U, the “polymerase ribozyme fitness (log ratio)” value turned out to be 0.743.

A66G U102A U135C: the “polymerase ribozyme fitness (log ratio)” value was at most -4.2.

On to U127G U134A, for which the “polymerase ribozyme fitness (log ratio)” value is -4.18.

As to A20G U102G A107U C116U A142U, the “polymerase ribozyme fitness (log ratio)” value was at most -4.2.

Regarding A16G C35U, the “polymerase ribozyme fitness (log ratio)” value is -1.36.

C36U G94A: the “polymerase ribozyme fitness (log ratio)” value was -3.52.

With U31C U102A, the “polymerase ribozyme fitness (log ratio)” value was determined as 0.128.

Regarding U7G A21C C36U C54U C79G G83A U144A, the “polymerase ribozyme fitness (log ratio)” value is at most -4.2.

Take C72A: the “polymerase ribozyme fitness (log ratio)” value is -3.87.

In the case of C54G C95U, the “polymerase ribozyme fitness (log ratio)” value is -2.35.

Consider U13G G94C C114G G143A, for which the “polymerase ribozyme fitness (log ratio)” value is at most -4.2.

For G42A U61A G84C G133U U144G, the “polymerase ribozyme fitness (log ratio)” value was at most -4.2.

For the variant G42C C43U A91U C93G, the “polymerase ribozyme fitness (log ratio)” value was at most -4.2.

On to U61G G83U G86A C149U, for which the “polymerase ribozyme fitness (log ratio)” value was at most -4.2.

For the variant A37C C96U G100C U102C C118G C131G, the “polymerase ribozyme fitness (log ratio)” value was at most -4.2.

In the case of A41C U56A U82A A150G, the “polymerase ribozyme fitness (log ratio)” value was -1.45.

Regarding U104G G126A, the “polymerase ribozyme fitness (log ratio)” value came to 0.207.

The values above are taken from the RNAGym collection of RNA variant scans (doi:10.1073/pnas.2313332121).
